We go through two substances from patent US20220017615A1.

Assay [1] addresses SIRPα protein with hFc tag (SIRPα-hFc) (UniProt P78324). As to the kind of experiment: ELISA on coated SIRPα-hFc 1 µg/mL; control 0.0001 µg/ml. A general note: An ELISA detects its analyte on a solid surface through an enzyme-linked reagent.
Assay [2] has the same target. The experiment in a line: ELISA on coated SIRPα-hFc 1 µg/mL; control 0.008 µg/ml.
Assay [3] shares this target. As to the kind of experiment: ELISA on coated SIRPα-hFc 1 µg/mL; control 0.04 µg/ml.
For assay [4] the target is unchanged. As to the kind of experiment: ELISA on coated SIRPα-hFc 1 µg/mL; control 0.00001 µg/ml.
Assay [5] has the same target. As to the kind of experiment: ELISA on coated SIRPα-hFc 1 µg/mL; control 0.2 µg/ml.
The target is the same in assay [6]. The experiment in a line: ELISA on coated SIRPα-hFc 1 µg/mL; control 0.0003 µg/ml.
For assay [7] the target is unchanged. As to the kind of experiment: ELISA on coated SIRPα-hFc 1 µg/mL; control 0.0016 µg/ml.
The target is the same in assay [8]. As to the kind of experiment: ELISA on coated SIRPα-hFc 1 µg/mL; control 1 µg/ml.
The target in assay [9] is human CD47, full length, on transfected cells (human) (UniProt Q08722). The experiment in a line: FACS, HEK293 clone 293F-hCD47 1F6.
The target is the same in assay [10]. The experiment in a line: FACS, HEK293 clone 293F-hCD47 1E8.
Assay [11] has the same target. As to the kind of experiment: FACS, HEK293 clone 293F-hCD47 1F8. Background: Flow cytometry measures light scatter and fluorescence of single cells or particles in a stream.
Assay [12] shares this target. The experiment in a line: FACS, HEK293 clone 293F-hCD47 2E2.
Assay [13] shares this target. The experiment in a line: FACS, HEK293 clone 293F-hCD47 1C2.
The target is the same in assay [14]. The experiment in a line: FACS, HEK293 clone 293F-hCD47 1D10.
Assay [15] shares this target. The experiment in a line: FACS, HEK293 clone 293F-hCD47 1A8.
Assay [16] has the same target. As to the kind of experiment: FACS, HEK293 clone 293F-hCD47 1B8.
For assay [17] the target is unchanged. The experiment in a line: FACS, HEK293 clone 293F-hCD47 1B6.
Assay [18] shares this target. As to the kind of experiment: FACS, HEK293 clone 293F-hCD47 1B5.
Assay [19] shares this target. The experiment in a line: FACS, HEK293 clone 293F-hCD47 1F10.
The target is the same in assay [20]. The experiment in a line: FACS, HEK293 clone 293F-hCD47 1B4.
The target is the same in assay [21]. As to the kind of experiment: FACS, HEK293 clone 293F-hCD47 1C8.
Assay [22] shares this target. As to the kind of experiment: FACS, HEK293 clone 293F-hCD47 1F11.
The target is the same in assay [23]. As to the kind of experiment: FACS, HEK293 clone 293F-hCD47 1C4.
The target is the same in assay [24]. As to the kind of experiment: FACS, HEK293 clone 293F-hCD47 1B11.

Sequence of SIRPα protein with hFc tag (SIRPα-hFc) (P78324 31-370): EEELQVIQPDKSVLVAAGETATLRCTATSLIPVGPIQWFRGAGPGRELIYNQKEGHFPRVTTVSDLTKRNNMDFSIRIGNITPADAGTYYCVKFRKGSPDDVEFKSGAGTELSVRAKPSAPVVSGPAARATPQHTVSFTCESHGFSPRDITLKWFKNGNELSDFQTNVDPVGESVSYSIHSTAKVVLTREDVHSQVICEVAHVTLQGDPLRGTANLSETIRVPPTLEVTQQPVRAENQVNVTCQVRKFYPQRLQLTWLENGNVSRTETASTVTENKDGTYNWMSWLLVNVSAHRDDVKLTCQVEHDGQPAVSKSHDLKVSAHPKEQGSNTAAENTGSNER

In the case of “Control protein (non-CD47 fusion protein)”, the OD450 nm was determined as 0.07 in assay [1]; 0.06 in assay [2]; 0.1 in [3]; 0.06 in assay [4]; 0.11 in assay [5]; 0.07 in [6]. In addition, the OD450 nm was 0.08 in assay [7] and 0.19 in [8].

Regarding IgG subtype control (antibody), the Mean fluorescence intensity in assay [9] was determined as 2.94; in assay [10], 2.79; in assay [11], 2.66; in assay [12], 2.79; in assay [13], 2.47; in assay [14], 3.19. Also, the Mean fluorescence intensity came out at 3.2 in assay [15]; 3.11 in [16]; 3.22 in assay [17]; 2.72 in assay [18]; 3.64 in assay [19]; 2.56 in [20]. For the same substance, the Mean fluorescence intensity in [21] was 2.15; in [22], 3.73; in [23], 3.84; in assay [24], 2.87. Moreover, the Positive cells (%) was determined as 2.35% in assay [9]; 1.29% in assay [10]; 3.13% in assay [11]; 2.42% in [12]; 1.85% in assay [13]; 2.38% in assay [14]. Also, the Positive cells (%) was 2.19% in assay [15]; 3.08% in assay [16]; 5.7% in assay [17]; 0.85% in assay [18]; 3.85% in assay [19]; 1.6% in assay [20]. The Positive cells (%) in [21] was 0.81%; in assay [22] it was 3.78%; in [23] it was 2.55%; in assay [24], 4.7%.
